For this series, the system named is Escherichia coli TOP10. Description: shrunken log2 fold change of peptide-encoding DNA abundance (4.5 h post-induction vs induction); higher = less antimicrobial activity (less host growth inhibition). Particulars: time post-induction: 4.5 h; library: site-saturation at positions 5, 18, 19, 20.
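Note: peptides expressed intracellularly from a pBAD plasmid library in pooled LB shake-flask culture, induced with 0.3% L-arabinose, DNA abundance read by NGS, three biological replicates, DESeq2 with apeglm shrinkage.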

For RRIRSRPPRLPRPRPRPGISPRP, the “shrunken log2 fold change” value is -0.486. The same measure for RRIRYRPPRLPRPRPRPDKRPRP: -0.168; for RRIRDRPPRLPRPRPRPNMRPRP: -0.00803. The same measure for RRIRQRPPRLPRPRPRPKFTPRP: 0.025. Turning to RRIRKRPPRLPRPRPRPHSIPRP, the “shrunken log2 fold change” value is 0.124. Consider RRIRSRPPRLPRPRPRPPWLPRP, for which the “shrunken log2 fold change” value was determined as 0.462. For RRIRFRPPRLPRPRPRPTAMPRP, the “shrunken log2 fold change” value was -0.105. For RRIRRRPPRLPRPRPRPSNVPRP, the “shrunken log2 fold change” value worked out at 0.27.

For RRIRLRPPRLPRPRPRPRHMPRP, the “shrunken log2 fold change” value was -0.287. The same measure for RRIRPRPPRLPRPRPRPPERPRP: 0.322. On to RRIRDRPPRLPRPRPRPMYNPRP, for which the “shrunken log2 fold change” value was -0.354. For the sequence RRIRIRPPRLPRPRPRPILQPRP, the “shrunken log2 fold change” value was -0.146. The same measure for RRIRTRPPRLPRPRPRPGETPRP: -0.105. As for RRIRCRPPRLPRPRPRPIACPRP, the figure is -0.285; as for RRIRDRPPRLPRPRPRPYHQPRP, -0.0205; as for RRIRYRPPRLPRPRPRPPVLPRP, -0.132. With RRIRHRPPRLPRPRPRPVSMPRP, the “shrunken log2 fold change” value was -0.0784. The same measure for RRIRWRPPRLPRPRPRPDLVPRP: 0.0575. Take RRIRNRPPRLPRPRPRPCDYPRP: the “shrunken log2 fold change” value was -0.00992. As for RRIRRRPPRLPRPRPRPWSIPRP, the figure is 0.0651; as for RRIRQRPPRLPRPRPRPFWEPRP, -0.0669; as for RRIRVRPPRLPRPRPRPTDVPRP, 0.0418. Consider RRIRLRPPRLPRPRPRPYASPRP, for which the “shrunken log2 fold change” value was 0.000498. For RRIRSRPPRLPRPRPRPFLYPRP, the “shrunken log2 fold change” value was -0.442. For the sequence RRIRPRPPRLPRPRPRPEVGPRP, the “shrunken log2 fold change” value was 0.353.

Regarding RRIRKRPPRLPRPRPRPITHPRP, the “shrunken log2 fold change” value is -0.0971. The same measure for RRIRRRPPRLPRPRPRPNITPRP: -0.128; for RRIRKRPPRLPRPRPRPEPVPRP: 0.0885; for RRIRCRPPRLPRPRPRPSGDPRP: -0.195. As for RRIRGRPPRLPRPRPRPDLKPRP, the figure is 0.0305; as for RRIRSRPPRLPRPRPRPMEMPRP, -0.0909; as for RRIRTRPPRLPRPRPRPWDWPRP, 0.00763. On to RRIRARPPRLPRPRPRPGLPPRP, for which the “shrunken log2 fold change” value worked out at 0.709. As for RRIRSRPPRLPRPRPRPLLDPRP, the “shrunken log2 fold change” value worked out at 0.218. Take RRIRTRPPRLPRPRPRPRDPPRP: the “shrunken log2 fold change” value was found to be 0.047.

For the sequence RRIRERPPRLPRPRPRPLGEPRP, the “shrunken log2 fold change” value is 0.0918. As for RRIRPRPPRLPRPRPRPMNCPRP, the figure is -0.138. The same measure for RRIRLRPPRLPRPRPRPCSMPRP: -0.00844. The same measure for RRIRGRPPRLPRPRPRPVYHPRP: -0.174; for RRIRWRPPRLPRPRPRPFAKPRP: 0.382; for RRIRERPPRLPRPRPRPLLWPRP: -0.0136.

In the case of RRIRDRPPRLPRPRPRPKLDPRP, the “shrunken log2 fold change” value amounted to 0.0966. The same measure for RRIRDRPPRLPRPRPRPYLWPRP: -0.0398; for RRIRQRPPRLPRPRPRPSIWPRP: -0.0257.

On to RRIRVRPPRLPRPRPRPGDTPRP, for which the “shrunken log2 fold change” value was -0.0412.

Regarding RRIRSRPPRLPRPRPRPLGNPRP, the “shrunken log2 fold change” value was -0.43. The same measure for RRIRGRPPRLPRPRPRPGFGPRP: 0.649; for RRIRYRPPRLPRPRPRPICQPRP: -0.087. As for RRIRMRPPRLPRPRPRPHASPRP, the figure is 0.116; as for RRIRFRPPRLPRPRPRPTENPRP, -0.115; as for RRIRFRPPRLPRPRPRPTTQPRP, 0.376. Regarding RRIRIRPPRLPRPRPRPWWTPRP, the “shrunken log2 fold change” value was -0.0807. As for RRIRVRPPRLPRPRPRPWETPRP, the “shrunken log2 fold change” value was determined as 0.0394. As for RRIRDRPPRLPRPRPRPKTCPRP, the figure is 0.00179.

RRIRYRPPRLPRPRPRPSSVPRP: the “shrunken log2 fold change” value is -0.425. On to RRIRCRPPRLPRPRPRPPMGPRP, for which the “shrunken log2 fold change” value worked out at 0.155. Turning to RRIRPRPPRLPRPRPRPQETPRP, the “shrunken log2 fold change” value was determined as 0.134. As for RRIRLRPPRLPRPRPRPEHNPRP, the figure is -0.204. As for RRIRRRPPRLPRPRPRPAPFPRP, the figure is 0.863; as for RRIRSRPPRLPRPRPRPLTKPRP, -0.175. As for RRIRFRPPRLPRPRPRPQCCPRP, the figure is -0.067. Turning to RRIRERPPRLPRPRPRPAAYPRP, the “shrunken log2 fold change” value is -0.0475.

Consider RRIRQRPPRLPRPRPRPMQPPRP, for which the “shrunken log2 fold change” value is 0.0113. As for RRIRLRPPRLPRPRPRPIAHPRP, the figure is -0.058; as for RRIRHRPPRLPRPRPRPYSIPRP, -9.97e-05; as for RRIRSRPPRLPRPRPRPEMTPRP, -0.0333. As for RRIRCRPPRLPRPRPRPHWIPRP, the figure is -0.761; as for RRIRTRPPRLPRPRPRPEFFPRP, -0.0853; as for RRIRVRPPRLPRPRPRPDLEPRP, -0.0782. As for RRIRQRPPRLPRPRPRPCTIPRP, the figure is -0.00957; as for RRIRHRPPRLPRPRPRPFGAPRP, -0.0114.

With RRIRHRPPRLPRPRPRPWHNPRP, the “shrunken log2 fold change” value was -0.261. As for RRIRFRPPRLPRPRPRPEYCPRP, the figure is 0.0467; as for RRIRDRPPRLPRPRPRPCNIPRP, -0.228. RRIRSRPPRLPRPRPRPCAKPRP: the “shrunken log2 fold change” value was 0.0351. Turning to RRIRDRPPRLPRPRPRPMEMPRP, the “shrunken log2 fold change” value was 0.0165. The same measure for RRIRARPPRLPRPRPRPNENPRP: 0.177; for RRIRERPPRLPRPRPRPLYGPRP: -0.136; for RRIRRRPPRLPRPRPRPTICPRP: 0.394.

Consider RRIRTRPPRLPRPRPRPACGPRP, for which the “shrunken log2 fold change” value is 0.282. The same measure for RRIRKRPPRLPRPRPRPRMCPRP: -0.211. Turning to RRIRERPPRLPRPRPRPSGMPRP, the “shrunken log2 fold change” value is -0.46.

In the case of RRIRMRPPRLPRPRPRPSPRPRP, the “shrunken log2 fold change” value was 1.05. Take RRIRARPPRLPRPRPRPMCAPRP: the “shrunken log2 fold change” value was found to be 0.813. As for RRIRRRPPRLPRPRPRPEEYPRP, the figure is -0.173; as for RRIRDRPPRLPRPRPRPAAWPRP, 1.56; as for RRIRARPPRLPRPRPRPQGYPRP, 0.119. Consider RRIRMRPPRLPRPRPRPKGKPRP, for which the “shrunken log2 fold change” value is 0.288.

With RRIRMRPPRLPRPRPRPNPGPRP, the “shrunken log2 fold change” value worked out at 0.0378. Take RRIRMRPPRLPRPRPRPMFEPRP: the “shrunken log2 fold change” value came to 0.155. For the sequence RRIRKRPPRLPRPRPRPHRSPRP, the “shrunken log2 fold change” value amounted to 0.0882. As for RRIRDRPPRLPRPRPRPPRKPRP, the figure is 0.758; as for RRIRYRPPRLPRPRPRPTEWPRP, -0.0714.

As for RRIRWRPPRLPRPRPRPDNWPRP, the “shrunken log2 fold change” value stood at 0.104. The same measure for RRIRIRPPRLPRPRPRPLHWPRP: -0.138. As for RRIRNRPPRLPRPRPRPNVLPRP, the figure is -0.178. As for RRIRMRPPRLPRPRPRPHIHPRP, the figure is -0.111; as for RRIRVRPPRLPRPRPRPEPSPRP, 0.0778; as for RRIRLRPPRLPRPRPRPSSEPRP, 0.0265. RRIRVRPPRLPRPRPRPKDNPRP: the “shrunken log2 fold change” value was -0.438. As for RRIRWRPPRLPRPRPRPPGSPRP, the figure is 0.333; as for RRIRCRPPRLPRPRPRPPDEPRP, 1.07. For the sequence RRIRFRPPRLPRPRPRPDQRPRP, the “shrunken log2 fold change” value is -0.325.

In the case of RRIRWRPPRLPRPRPRPDRKPRP, the “shrunken log2 fold change” value was -0.0752. Regarding RRIRTRPPRLPRPRPRPATRPRP, the “shrunken log2 fold change” value turned out to be 0.0996. For the sequence RRIRSRPPRLPRPRPRPEMCPRP, the “shrunken log2 fold change” value is -0.104. RRIRTRPPRLPRPRPRPMRQPRP: the “shrunken log2 fold change” value was -0.01. In the case of RRIRARPPRLPRPRPRPQPKPRP, the “shrunken log2 fold change” value was determined as 0.465.

For the sequence RRIRTRPPRLPRPRPRPASMPRP, the “shrunken log2 fold change” value is -0.212.

Take RRIRLRPPRLPRPRPRPFGPPRP: the “shrunken log2 fold change” value was 0.0996. As to RRIRERPPRLPRPRPRPTVSPRP, the “shrunken log2 fold change” value is -0.137. As for RRIRPRPPRLPRPRPRPSMPPRP, the figure is -0.208. As for RRIRDRPPRLPRPRPRPADFPRP, the “shrunken log2 fold change” value is -0.0606.

Regarding RRIRFRPPRLPRPRPRPWPPPRP, the “shrunken log2 fold change” value was determined as 1.11. As for RRIRHRPPRLPRPRPRPDQEPRP, the figure is -0.01; as for RRIRHRPPRLPRPRPRPTLPPRP, -0.00384; as for RRIRIRPPRLPRPRPRPYACPRP, -0.0484. On to RRIRNRPPRLPRPRPRPGQQPRP, for which the “shrunken log2 fold change” value is -0.0199.

For RRIRFRPPRLPRPRPRPPKDPRP, the “shrunken log2 fold change” value came out at 0.248.

With RRIRPRPPRLPRPRPRPTTTPRP, the “shrunken log2 fold change” value turned out to be 0.142. With RRIRRRPPRLPRPRPRPILMPRP, the “shrunken log2 fold change” value was -0.00531.

For RRIRTRPPRLPRPRPRPSDQPRP, the “shrunken log2 fold change” value was -0.183.

As for RRIRPRPPRLPRPRPRPRQNPRP, the “shrunken log2 fold change” value came out at 0.463. In the case of RRIRSRPPRLPRPRPRPLVPPRP, the “shrunken log2 fold change” value was -0.0319. With RRIRGRPPRLPRPRPRPDDPPRP, the “shrunken log2 fold change” value came to 0.0369.

The values above are taken from the supplement of paper PMC9112550, “Optimization of the antimicrobial peptide Bac7 by deep mutational scanning” (BMC Biology, 2022).
